Measured values from patent US12134788B2, “Engineered prephenate dehydrogenases and arogenate dehydrogenases and methods of using the same” (Wisconsin Alumni Research Foundation, priority 2017, dated 2024).

Assays:
[1] = PDH assay: steady-state kinetics of purified recombinant plant enzymes with prephenate; assay type: biochemical; conditions: prephenate versus arogenate, NADP+ cofactor
Description: As used herein, a polypeptide may “have greater arogenate dehydrogenase activity than prephenate dehydrogenase activity” or “have greater prephenate dehydrogenase activity than arogenate dehydrogenase activity” when the steady-state kinetic parameters (kcat/Km (mM^−1s^−1)) for arogenate dehydrogenase activity are greater than the steady-state parameters (kcat/Km (mM^−1s^−1)) for prephenate dehydrogenase activity or when the steady-state kinetic parameters (kcat/Km (mM^−1s^−1)) for prephenate dehydrogenase activity are greater than the steady-state parameters (kcat/Km (mM^−1s^−1)) for arogenate dehydrogenase activity. Steady-state kinetic parameters may be measured using techniques similar to those described by the inventors in the Examples. Briefly, kinetic parameters of purified polypeptides can be determined from assays conducted at varying arogenate and prephenate concentrations. Standard assay conditions include 25 mM HEPES pH 7.6, 50 mM KCl and 10% (v/v) ethylene glycol, and 0.5 mM NADP^+ with varied substrate, concentrations. Reactions can be initiated by the addition of the polypeptide and incubated at 37° C. monitored every 10-15 seconds at A340nm using a microplate reader. Kinetic parameters may be determined by fitting initial velocity data to the Michaelis-Menten equation using the Origin software.
Kinetic parameters of purified recombinant proteins were determined from assays conducted at varying arogenate (19.5 μM-5 mM) and prephenate concentration (23.4 μM-6 mM). Standard assay conditions were 25 mM HEPES pH 7.6, 50 mM KCl and 10% (v/v) ethylene glycol, and 0.5 mM NADP^+ with varied substrate, concentrations. Reactions were initiated by addition of enzyme and incubated at 37° C. monitored every 10-15 seconds at […] using a microplate reader (Tecan Genios). Kinetic parameters were determined by fitting initial velocity data to the Michaelis-Menten equation using the Origin software (OriginLab).

[2] = Tyr inhibition assay of ADH activity (arogenate substrate); assay type: biochemical; conditions: Tyr up to 8 mM
Description: Arogenate was prepared by enzymatic conversion of prephenate (Sigma-Aldrich) as previously reported^56. For Tyr inhibition assays, Tyr was dissolved in a slightly basic solution (0.025 N NaOH) due to solubility issues, thus the concentration of lysis buffer was increased to 500 mM HEPES final concentration to buffer against the changes by addition of Tyr in the reaction. Reactions containing varying amounts of Tyr (10 μM-8 mM) with 0.5 mM NADP^+ and either 1 mM arogenate or 0.8 mM prephenate were monitored as above.

| Molecule | substrate specificity: PDH versus ADH activity (in words) [1] | feedback inhibition by Tyr (in words) [2] |
| --- | --- | --- |
| AtADH2 D241N: site-directed mutant of Arabidopsis canonical ADH, Asp241 to Asn (protein, Synthetic: AtADH2 D241N, site-directed mutant of Arabidopsis canonical ADH, Asp241 to Asn) MLLHFSPAKPLISPPNLRRNSPTFLISPPRSLRIRAIDAAQIFDYETQLKSEYRKSSALKIAVLGFGNFGQFLSKTLIRHGHDLITHSRSDYSDAANSIGARFFDNPHDLCEQHPDVVLLCTSILSTESVLRSFPFQRLRRSTLFVDVLSVKEFPKALFIKYLPKEFDILCTHPMFGPESGKHSWSGLPFVYDKVRIGDAASRQERCEKFLRIFENEGCKMVEMSCEKHDYYAAGSQFVTHTMGRVLEKYGVESSPINTKGYETLLDLVENTSSNSFELFYGLFMYNPNALEQLERLDMAFESVKKELFGRLHQQYRKQMFGGEVQSPKKTEQKLLNDGGVVPMNDISSSSSSSSSSS | gained PDH activity at the expense of ADH activity | significantly less sensitive to Tyr inhibition than the respective wild-type enzymes |
| MtncADH D220C: site-directed mutant of M. truncatula noncanonical ADH, Asp220 to Cys (protein, Synthetic: MtncADH D220C, site-directed mutant of M. truncatula noncanonical ADH, Asp220 to Cys) MSNSPSLKIGIVGFGSFGQFLAKTMIKQGHTLTATSRTDYSHTCLQLGIQFFRDVGTFIEANNDVILICTSIMSFTKVLSSMPLACLKKPTTLFVDVLSVKEHPREVLLRVLPEESDILCTHPMFGPESGKNGWKDLNFMYDKVRIHDEATCSNFLHIFASEGCKMLQMSCEEHDKIAAKSQFITHTIGRTLAEMDIESTPIDTKGFQTLTQLKNTTMRCSFDLYSGLFVHNRFAKQELENLQRALDRVKEMLVQRMREELGPEKD | reduced ADH activity and enhanced PDH activity | significantly less sensitive to Tyr inhibition than the respective wild-type enzymes |
| GmncADH: noncanonical arogenate dehydrogenase from soybean, wild-type (protein, GmncADH WT, noncanonical arogenate dehydrogenase from soybean, wild-type) MSTWSLKIGVVGFGSFGQFLAKTMIKQGHTLRATSRTDYSLLCLPMGIQFFRDVAAFLEADNDVILVCTSILSLSEVLSSMPLTCLKRSTLFVDVLSVKEHPRNLLIKVLPEESDILCTHPMFGPDSGKDGWQDLTFVYDKVRIRDEAICSSFLHIFASEGCRMLQMSCEEHDKIAAKSQFITHTIGRTLAEMDIKSTPIDTKGFHSLVQLKDTTIRDSFDLYSGLFLHNRFAVQELENLEHALHKVKEMLVQRKSEELGLEKTEC | only displayed activity with arogenate | sensitive to Tyr but with IC50 values in the mM range |
